Measurements published in patent CN116813768A.

Target: 大熊猫TSHβ特异序列(TSHβ-1), synthetic peptide (大熊猫 (giant panda))
Experiment: indirect ELISA, TSHβ-1 peptide coated at 2 μg/mL, serial dilutions of purified antibody, OD450

效价 (ELISA titer) (fold dilution): > 1e+06
B1: 大熊猫TSHβ单克隆抗体 (secreted by hybridoma cell line TSHB-A, CCTCC NO: C202282) (antibody, V domains shown)
VH: EVKLVESGGGLVKPGGSLKLSCAASGFIFRRYAMSWVRQTPEKRLEWVAAISSGGNIYYLDNVKGRFTISRDDARNILYLQMSSLRSEDTAMYYCARDDYDEDWYFDVWGAGTTVTVSS
VL: DVLMTQIPLSLPVSLGDQASISCRSSQSIVHSNGNTYLEWYLQKPGQSPNLLIYKVSNRFSGVPDRFSGSGSGTDFTLKISRVEAEDLGVYYCFQGSHLPPTFGGGTKLEIK
